Substitutions are numbered along the chain they refer to.
B1: cr800 (nucleic acid)
guide: GTTTAAGAGCTAAGCTGGAAACAGCATAGCAAGTTTAAATAAGGTTAATCCGTTATCATCTTGAAAAAGAGACACCGAGTCGGTGTT
modifications: listed as DNA, chemistry not fully specified
B2: cr181 (nucleic acid)
guide: B1 guide with T59A, C60T, G69A, A70T, A72G, A74G, T84C, T86C
modifications: listed as DNA, chemistry not fully specified
B3: cr224 (nucleic acid)
guide: GTTTAAGAGCTAAGCTGGAAACAGCATAGCAAGTTTAAATAAGGCTAGTCCGTTATCAACCTGAAAAGGTGGTATCGAGTCGATACT
modifications: listed as DNA, chemistry not fully specified
B4: cr327 (nucleic acid)
guide: B3 guide with C61T, A64C, G68A, T73C, T75C, A83G, A85G
modifications: listed as DNA, chemistry not fully specified
B5: cr161 (nucleic acid)
guide: B3 guide with C61T, A66C, G68A, T73C, T75C, G79C, A83G, A85G
modifications: listed as DNA, chemistry not fully specified
B6: cr131 (nucleic acid)
guide: B3 guide with C61T, A65G, G68A, T73C, T75C, C76A, G82T, A83G, A85G
modifications: chemistry not given here
B7: cr264 (nucleic acid)
guide: B3 guide with C61T, G68T, T73C, T75C, A83G, A85G
modifications: listed as DNA, chemistry not fully specified
B8: cr360 (nucleic acid)
guide: B3 guide with C61T, G68A, T73C, A85G
modifications: listed as DNA, chemistry not fully specified
B9: cr416 (nucleic acid)
guide: B3 guide with C61T, G68A, T73C, A74G, T75C, G77A, C81T, A83G, T84C, A85G
modifications: listed as DNA, chemistry not fully specified
B10: cr707 (nucleic acid)
guide: B3 guide with C61T, G68A, T73C, T75C, A78T, A83G, A85G
modifications: listed as DNA, chemistry not fully specified
B11: cr646 (nucleic acid)
guide: B3 guide with C60A, C61T, G68A, G69T, T73C, A74T, T75C, A83G, T84A, A85G
modifications: listed as DNA, chemistry not fully specified
B12: cr359 (nucleic acid)
guide: B3 guide with A28C, C61T, G68A, T73C, T75C, A83G, A85G
modifications: listed as DNA, chemistry not fully specified
B13: cr307 (nucleic acid)
guide: B3 guide with C61T, G68A, T73C, T75C, G77A, C81T, A83G, A85G
modifications: listed as DNA, chemistry not fully specified
B14: cr306 (nucleic acid)
guide: B3 guide with A47T, C61T, G68A, T73C, T75C, A78T, A83G, A85G
modifications: listed as DNA, chemistry not fully specified
B15: cr159 (nucleic acid)
guide: B3 guide with A31T, C61T, G68A, T73C, T75C, A83G, A85G
modifications: listed as DNA, chemistry not fully specified
B16: cr167 (nucleic acid)
guide: B3 guide with G68A, T73C, T75C, A83G, A85G
modifications: listed as DNA, chemistry not fully specified
B17: cr397 (nucleic acid)
guide: B3 guide with C60A, C61T, G68A, G69T, T73C, T75C, A83G, A85G
modifications: listed as DNA, chemistry not fully specified
B18: cr994 (nucleic acid)
guide: B3 guide with C61T, G68A, T73C, T75C, G79T, A83G, A85G
modifications: listed as DNA, chemistry not fully specified
B19: cr372 (nucleic acid)
guide: B3 guide with T46G, C61T, G68A, T73C, T75C, A83G, A85G
modifications: listed as DNA, chemistry not fully specified
B20: cr938 (nucleic acid)
guide: B3 guide with A47G, C61T, G68A, T73C, T75C, A83G, A85G
modifications: listed as DNA, chemistry not fully specified
B21: cr287 (nucleic acid)
guide: B3 guide with C61T, A65T, G68A, T73C, T75C, G79C, A83G, A85G
modifications: listed as DNA, chemistry not fully specified
B22: cr835 (nucleic acid)
guide: B3 guide with C61T, G68A, T73C, T75C, A83G, T84C, A85G
modifications: listed as DNA, chemistry not fully specified
B23: cr831 (nucleic acid)
guide: B3 guide with C60T, C61T, G68A, G69A, T73C, T75C, A83G, A85G
modifications: listed as DNA, chemistry not fully specified
B24: cr102 (nucleic acid)
guide: B3 guide with C60T, C61T, G68A, G69A, T73A, T75C, A83G, A85T
modifications: listed as DNA, chemistry not fully specified
B25: cr205 (nucleic acid)
guide: B3 guide with C60T, C61T, G68A, G69A, T73G, T75C, A83G, A85C
modifications: listed as DNA, chemistry not fully specified
B26: cr299 (nucleic acid)
guide: B3 guide with C61T, A64G, A65G, G68A, T73C, T75C, A83G, A85G
modifications: listed as DNA, chemistry not fully specified
B27: cr748 (nucleic acid)
guide: B3 guide with C61T, T62C, A65G, A67G, G68A, T73C, T75C, A83G, A85G
modifications: listed as DNA, chemistry not fully specified
B28: cr147 (nucleic acid)
guide: B3 guide with C61T, G63A, A64T, G68A, T73C, T75C, G79C, A83G, A85G
modifications: listed as DNA, chemistry not fully specified
B29: cr944 (nucleic acid)
guide: B3 guide with C61T, T62C, A67G, G68A, T75C, G77A, C81T, A83G
modifications: listed as DNA, chemistry not fully specified
B30: cr267 (nucleic acid)
guide: B3 guide with G18C, C61T, G68A, T73C, T75C, A83G, A85G
modifications: listed as DNA, chemistry not fully specified
B31: cr644 (nucleic acid)
guide: B3 guide with A28T, C61T, G68A, T73C, T75C, A83G, A85G
modifications: listed as DNA, chemistry not fully specified
B32: cr825 (nucleic acid)
guide: B3 guide with C61T, G68A, T73C, A74T, T75G, A83C, T84A, A85G
modifications: listed as DNA, chemistry not fully specified

Legend:
[1] = system: K562 CRISPRi cells; experiment: Perturb-seq pooled growth measurement (sgRNA counts, growth phenotype γ, relative activity); format: cell-based, human; conditions: sequencing read counts; for Perturb-seq pooled growth sgRNA counts, d5: 5 days of growth (day seven after transduction); for Perturb-seq pooled growth sgRNA counts, d10: 10 days of growth (day twelve after transduction); for Perturb-seq pooled growth sgRNA counts, T0: T0 = day two after transduction
Source text: Finally, we sought to use intermediate-activity sgRNAs to explore relationships between expression levels of various genes and the resulting cellular phenotypes. To simultaneously measure gene expression levels and obtain rich phenotypes for a variety of sgRNA series, we used Perturb-seq, an experimental strategy that enables matched capture of the transcriptome and the identity of an expressed sgRNA for each individual cell in pools of cells (27, 31-33) (FIG. 12A). […] In addition to the single-cell transcriptomes, we measured bulk growth phenotypes conferred by sgRNAs in these cells.
To measure the growth rate defects conferred by each sgRNA for comparison with the transcriptional phenotypes, samples of 500,000 transduced cells were taken from the same transduced cell population used in the Perturb-seq experiment on days two, seven, and twelve after transduction. Genomic DNA was extracted using the Nucleospin Blood kit (Macherey-Nagel) and sgRNA amplicons were prepared as described previously and above (19), albeit with no genomic DNA digestion or gel purification, and sequenced on HiSeq 4000 as described above for the other screens. Growth phenotypes were calculated by comparing normalized sgRNA abundances at day seven and twelve to those at day two, as described above. […] Relative sgRNA activities measured at day seven (five days of growth) were used to assign sgRNA activities in further analysis.

[2] = system: K562 CRISPRi cells; experiment: Constant region variant library pooled growth screen, K562; format: cell-based, human; conditions: sgRNA constant region variants
Summary of the method: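 Library of sgRNA constant-region variants, each paired with 36 targeting sequences (essential-gene and non-targeting), transduced in duplicate into K562 CRISPRi cells, puromycin-selected and grown 4–8 days at >2000× coverage. Activity per variant is its growth phenotype normalised to the same targeting sequence with unmodified constant region.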

[3] = activity relative to the un-modified constant region cr995
[4] = activity relative to the original, un-modified constant region cr995

| Molecule | Mean relative activity [2, 3] | further results |
| --- | --- | --- |
| RPS15_−_1438413.23-P1P2_00: sgRNA targeting RPS15, GACCAAAGCGATCTCTTCTG, SEQ ID NO: 60 (listed as DNA, chemistry not fully specified) | – | Perturb-seq pooled growth sgRNA counts, d5 [1]: 2912; Perturb-seq pooled growth sgRNA counts, d10 [1]: 3376; Perturb-seq pooled growth sgRNA counts, T0 [1]: 6757 |
| COX11_+_53045977.23-P1P2_05: sgRNA targeting COX11, GGCTCTGGCGTCTTGGATGG, SEQ ID NO: 144 (listed as DNA, chemistry not fully specified) | – | Perturb-seq pooled growth sgRNA counts, d5 [1]: 10766; Perturb-seq pooled growth sgRNA counts, d10 [1]: 11496; Perturb-seq pooled growth sgRNA counts, T0 [1]: 5205 |
| DBR1_+_137893744.23-P1P2_07: sgRNA targeting DBR1, GTTTGCAGGGGTCTACACCC, SEQ ID NO: 80 (listed as DNA, chemistry not fully specified) | – | Perturb-seq pooled growth sgRNA counts, d5 [1]: 4894; Perturb-seq pooled growth sgRNA counts, d10 [1]: 2550; Perturb-seq pooled growth sgRNA counts, T0 [1]: 8500 |
| B1 | 0.9728 | – |
| B2 | 0.9506 | – |
| B3 | 0.9777 | – |
| B4 | – | Mean relative activity [2, 4]: 1.066 |
| B5 | 0.9671 | – |
| B6 | 0.96 | – |
| B7 | 0.9513 | – |
| B8 | – | Mean relative activity [2, 4]: 1.066 |
| B9 | 0.9574 | – |
| B10 | 0.9632 | – |
| B11 | 0.962 | – |
| B12 | 0.9746 | – |
| B13 | 0.9746 | – |
| B14 | 0.9647 | – |
| B15 | 0.9739 | – |

| Molecule | Mean relative activity [2, 3] | further results |
| --- | --- | --- |
| B16 | 0.9545 | – |
| B17 | 0.9508 | – |
| B18 | 0.9671 | – |
| B19 | 0.9545 | – |
| B20 | 0.9596 | – |
| B21 | 0.9686 | – |
| B22 | 0.9515 | – |
| B23 | 0.962 | – |
| B24 | 0.9651 | – |
| B25 | 0.9515 | – |
| B26 | 0.9718 | – |
| B27 | – | Mean relative activity [2, 4]: 1.146 |
| B28 | 0.9753 | – |
| B29 | – | Mean relative activity [2, 4]: 1.065 |
| B30 | 0.9552 | – |
| B31 | 0.9694 | – |
| B32 | 0.9691 | – |

Source: US20220259593A1, “CONTROL OF MAMMALIAN GENE DOSAGE USING CRISPR” (The Regents of the University of California, priority 2019, published 2022)
